From US20210340205A1 (Novartis, published 2021)
Blank lines part the entries; values can stand above or below the binder they belong to.

Target: T1, Human cRET(ECD)-Fc (human)
T1 construct: also called RET-Fc
Test: MSD plate assay, cRET(ECD)-Fc coated; biotinylated anti-6xHis mAb and streptavidin sulfo-tag
Protocol: Methods: To generate soluble GDF15/GFRAL complexes in vitro, recombinant GFRAL(D2D3)-App, GFRAL(ECD)-His, and GFRAL(ECD)-Fc proteins purified in Example 1 were freshly mixed with equimolar amounts of biotinylated His-GDF15 (1250 pM) in DPBS supplemented with 50 μM CaCl₂. The mixtures were incubated at room temperature for 60 min to allow complex formation. The complex made was stable at 4° C. and was used directly for in vitro binding assays against cRET(ECD)-Fc coated on plastic plates without further purification. Three different GDF15/GFRAL ECD complexes were prepared, including His-GDF15(biotin)/GFRAL(D2D3)-App, His-GDF15(biotin)/GFRAL (ECD)-His, and His-GDF15(biotin)/GFRAL (ECD)-Fc in the same manner. […] His-GDF15(L294R) was mixed with GFRAL(ECD)-His to generate a negative control for GDF15/GFRAL/cRET interaction. […]
Methods: Mixtures of purified biotinylated His-GDF15 and GFRAL(ECD)-His or His-GDF15(L294R) and GFRAL(ECD)-His were prepared as described in Example 3. […] Binding of proteins to plates coated with cRET(ECD)-Fc was detected using biotinylated mouse anti-6×His tag monoclonal antibody followed by streptavidin sulfo-tag, and otherwise by methods described in Example 3.

T1 sequence (chain, as listed by the source): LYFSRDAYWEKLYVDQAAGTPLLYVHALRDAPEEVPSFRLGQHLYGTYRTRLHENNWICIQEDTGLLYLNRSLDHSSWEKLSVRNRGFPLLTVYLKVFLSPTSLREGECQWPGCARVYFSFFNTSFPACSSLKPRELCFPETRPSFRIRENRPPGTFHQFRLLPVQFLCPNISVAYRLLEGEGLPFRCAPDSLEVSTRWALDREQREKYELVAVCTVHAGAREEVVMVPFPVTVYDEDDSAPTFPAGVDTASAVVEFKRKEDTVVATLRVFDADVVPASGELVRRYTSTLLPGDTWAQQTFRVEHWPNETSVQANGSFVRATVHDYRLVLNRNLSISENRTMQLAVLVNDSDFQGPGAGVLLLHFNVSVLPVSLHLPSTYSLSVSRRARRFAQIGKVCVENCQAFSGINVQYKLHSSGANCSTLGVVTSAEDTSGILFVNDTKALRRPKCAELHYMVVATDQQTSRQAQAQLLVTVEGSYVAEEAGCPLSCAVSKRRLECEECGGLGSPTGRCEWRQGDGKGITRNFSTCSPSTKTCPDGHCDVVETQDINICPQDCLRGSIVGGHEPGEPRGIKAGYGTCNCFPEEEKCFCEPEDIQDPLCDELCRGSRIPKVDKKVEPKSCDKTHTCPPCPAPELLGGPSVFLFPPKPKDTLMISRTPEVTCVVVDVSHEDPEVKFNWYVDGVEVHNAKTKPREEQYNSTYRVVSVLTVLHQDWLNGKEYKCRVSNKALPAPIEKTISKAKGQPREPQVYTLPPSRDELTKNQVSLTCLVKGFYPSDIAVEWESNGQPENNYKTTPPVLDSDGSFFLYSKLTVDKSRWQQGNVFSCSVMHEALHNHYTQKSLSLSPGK

- binding result: no binding (tested: 0-5 log 10 pM)
B1: His-GDF15(L294R)/GFRAL(ECD)-His mixture (other)
chain 1: HHHHHHGSGGARNGDHCPLGPGRCCRLHTVRASLEDLGWADWVLSPREVQVTMCIGACPSQFRAANMHAQIKTSLHRLKPDTVPAPCCVPASYNPMVLIQKTDTGVSRQTYDDLLAKDCHCI
chain 2: QTNNCTYLREQCLRDANGCKHAWRVMEDACNDSDPGDPCKMRNSSYCNLSIQYLVESNFQFKECLCTDDFYCTVNKLLGKKCINKSDNVKEDKFKWNLTTRSHHGFKGMWSCLEVAEACVGDVVCNAQLASYLKACSANGNPCDLKQCQAAIRFFYQNIPFNIAQMLAFCDCAQSDIPCQQSKEALHSKTCAVNMVPPPTCLSVIRSCQNDELCRRHYRTFQSKCWQRVTRKCHEDENCISTLSKQDLTCSGSDDCKAAYIDILGTVLQVQCTCRTITQSEESLCKIFQHMLHRKSCFNYPTLSNVKGMALYTRKHANKITLTGFHSPFNGEGSHHHHHH

- binding result: no binding (tested: 0-5 log 10 pM)
B2: His-GDF15(L294R) (ligand)
chain: B1 chain 1
notes: Non-functional mutant, prepared in the same way as wild-type His-GDF15 (E. coli, see US 2017/204149); also called His-GDF15(L294R) mutant
